From the nanobody polyreactivity screen of Harvey et al. (2022)

test: yeast display, Sf9 membrane polyspecificity reagent, FACS + sequencing; frameworks hold sequencing errors
Summary of the method: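 Polyreactivity labels are assigned by the sorting gate from which each nanobody was recovered. The gates were low and high (top ~1%), set on anti-HA fluorescence for expression and streptavidin fluorescence for reagent binding. Before sorting, galactose-induced (36–48 hours) yeast display cells were stained for 1 hour at 4 °C with 10% biotinylated, detergent-solubilized Sf9 membrane reagent.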

Row | Sequence | polyreactivity (PSR sort gate)
1 | KVQLVESGGGLVQAGGSLGLSCAASGSIFPSNFMGCYRQAPGKERELFAAISNTGSTYYADSVKGRVTISRDNAKNTVYLQMNSLKPEDTAVYYCAAEYWSYAHGGQLYGYDYWGQGSQVTVSS | low polyreactivity
2 | QVQLVESGGGLVQAGGSLRLSCAASGIIFVVNDMGWYRQAPGKERELVADISDSGGSTNYADSVKGRFTISRDNAKNTVYLQMNSLKPEDTAVYYCNADGITSLPVPALDYWGQGTQVTVSS | low polyreactivity
3 | QVQLVESGGGLVQAGGSLRLSCAASGSTLNYYAMGWYRQAPGKERELVAAITWSGGSTSYADSVKGRFTISRDNAKNTVYVQMNSLKPEDTAVYYGATDFPTVQLYDTDWLSSDMGYWGQGTQVTVSS | low polyreactivity
4 | QVQLVETGVGLVQAGGSLRLSCAASGRIFKRNTMGWYRQAPGKEREFVASITFSGGSTNYADSVKGRFTISRDNAKNTVYLQMNSLKPEDTAVYYCAARDYHYSTYDYWGQGTQVTVSS | low polyreactivity
5 | QVQLVESGGGLVQAGGSLRLSCAASGFIFGYYAMGGYRQAPGKERELVATIRQTGGSTRYADSVKGRFTISRDNAKNTVYLQMNSLIPEDTAVYYCAAYKWPSWRTWPYDSWGQGPQVTVSS | high polyreactivity
6 | QVQLEESGGGLVQAGGSLRIICADSGINFRYNAMGLYRKAPGKERELVAGIRKRGGSTYYADSVKGRFTISRDNANNTVYLQMNSLKPEDTEVYYCAALCPTTGRNYHSTPYEYWGQGTQVTVSS | high polyreactivity
7 | QVQLVESGGGLVQAGGSLRLSCAASGFIFVYYAMGWYRQAPGKERELVAAITSDVNTYYADSVKGRFSISRDNAKNTVYLHMNSLKPEDTAVDYCNADADDYRDYQDYDYWGQGSQVTVSS | low polyreactivity
8 | QVQLVESGGGLVQAGGSLRLSCAASGSTFDYYAMGWYRQAPGKERELVAAISRTGGRTYYADSVKGRFTISRDNAKNTVFLQMNSLKPEDTAVYYCAARGGWVRRYGWRLDYWGQGTQVTVSS | low polyreactivity
9 | QVQLVESGGGLVQAGGSHRLSCAASGSNAMGWYRQAHGKERELVAVITGGGSTHYADSVKGRYTISRDNAKNTVYLLMNSLKAEVTAVYYCAAVYWHSRGKFADIAVDYWGQGTQVTVSS | low polyreactivity
10 | QVQLVESGGGLVQAGGSLRLSCAASGRIFSGYVMGWYRQPPGKERELVAAISRSGGSTYYADSVKGRFTISRDNAKNTVYLQMNSLKPEDTAVYYCNADWYKRHYDYWGQGTQVTVSS | high polyreactivity
11 | QVQLVESGGGLVQAGGSLSLSCAASGRIYYYAMGWYRQAPGKERELVAAITGRGGSTYYADSVKGRFTISRDNAKNRVYLQMNSLKPEDTAVYYCARAGCPRHDWGQGTQVTVSS | high polyreactivity
12 | QVQLVESGGGLVQAGGSLRLSCAASGFTFPWNVMGWYRQAPGKERELVAAITYDGGGTYADSVKGRFTISRDNAKNTVYLQMNSLKPEDTEVYFCNADLIYGEVYDYWGQGTQVTVSS | low polyreactivity
13 | QVQLVESGGGLVQAGGSLRLSCAASGLIFYRYAMGTTRQAPGKERELVATISGGGRTYYADSVKGRFTISRDNAKNTVYLQMNSLKPEDTAVYYCNADRQWYSIGSWEYDYWGQGTQVTVSS | high polyreactivity
14 | QVQLVESGGGLVQAGGSLRLSCAASGSIFGRNTMGWYRQAPGKERELVAAISSSGGSTRYADSVKGRFTISRDNAKITVYLQMNSLKQEDTAVYYCNDRPRTIYVNRKYDYWGQCTQVTVSS | high polyreactivity
15 | QVQLVDSGGGLVQAGGSLSLSCAASGRTFARYTMGWSRQAPGKERELLAVISRSGGSTYYADSVKGRFTISRDNAKNSVYLKKNSLKQEDTAVYYCAAGYFVVTTLEYYFWGQGTQVTVSS | high polyreactivity
16 | QVQLVESGGGLVQAGGSLRLSCAASGSTFAPNTMGWYRQAPGKERELVAGITDGTITTYADSVKGRFTISRDNAKNTVYLQMNSLKPEDTAVYYCATRQSWYPRWMDYWGQGTQVTVSS | high polyreactivity
17 | QVQLVESGGGLVQAGGRLRLSCAASGRIFVVYAMGWSRQAPGKERELVAAISKRGGSTYYADSVKGRFTISRDNAKYTVYLQMNTLKPEDTAVYYCAAGRYKSDLMDYWGQGTQVTVSS | high polyreactivity
18 | QVQLVESGGGLVQAGGSLRLSCAASGSTFSTYAMGWYRQAPGKERELVAVITWRGGSTYYADSVKGRFTISRDNAKNTVYLQMNSLKPEDTAVYYCAAEGESPEYDYWGQGTQVTVSS | low polyreactivity
19 | QVQLVESGGGLVQAGGSLRLSCAASGRIFWRNTMGWYRQAPGKERELVAAITRTGGSTYYADSVKGRFTISRDNAKNTVYLQMNSLKPEDTAVYYCAVYARWYGYGYGYWGQGTQVTVSS | high polyreactivity
20 | QVQLVESGGGLVQAGGSLRLSCAASGFIFWRNAMGWYSQAPGQERELVAAITSGDRTNYADSVKGRFTISRDNAKNTVYLQMNSLKPEDTAVYYCNARRYRLVSYDYWGQGTQVTVSS | low polyreactivity
21 | QVQLVESGGGLVQAGGSLRLSCAASGFTFTENVMGWYRQAPGKEREFVAAITYIGGRTYYADSVKGRFTISRDNAKNTVYLQMNSLKPEDTAVYYCAADWAYYVASYLYYTFAYWGQGTQVTVSS | low polyreactivity
